Measured values as given in patent US7132278B2, “PAS kinase” (Board of Regents, The University of Texas System, priority 2001, dated 2006).

Substrate: Nc1ncnc2c1ncn2[C@@H]1O[C@H](COP(=O)(O)OP(=O)(O)OP(=O)(O)O)[C@@H](O)[C@H]1O
Test: PASK kinase activity (phosphorylation of AMARA peptide), ATP kinetics
Format: biochemical, human
Conditions: other: HTS kinase assay, AMARA peptide substrate, Tris-HCl pH 7.5, 10 mM MgCl2, room temperature
Procedure: Biochemical properties of the Pask enzyme. A recombinant baculovirus was engineered to overexpress human PASK enzyme in cultured insect cells. The enzyme was expressed as a fusion with a His6 tag at its amino terminus such that the recombinant polypeptide could be purified by Ni-affinity chromatography. Routine enzyme preparations were harvested from 0.8 liter of cultured Sf-9 cells. Cells were lysed by dounce homogenization in 50 mM Tris-HCl, pH 8.0, 100 mM NaCl, 0.04% β-mercaptoethanol (“lysis buffer”) and spun at 100,000×G for one hour to remove insoluble debris. Soluble material (˜50 ml) was then applied to a 3 ml bed volume of Ni-affinity resin. Following application and 50× column volume wash, bound material was eluted with storage buffer (50 mM HEPES, pH 7.4, 100 mM NaCl, 1 mM DTT, 1 mM EDTA) supplemented with 250 mM imidazole. Eluted material was sequentially subjected to Mono-Q, anion-exchange chromatography, and eluted with increasing NaCl concentration. Fractions were evaluated by SDS-PAGE to identify PASK enriched fractions, pooled and dialyzed against storage buffer supplemented with 10% glycerol. Typical enzyme preparations yield 0.5 mg of intact PASK enzyme judged to be greater than 95% pure by visual inspection of Coomassie-stained SDS-PAGE gels.

B1: human PASK (PAS-kinase), wild type, SEQ ID NO:2 (Homo sapiens) (protein)
chain: MEDGGLTAFEEDQRCLSQSLPLPVSAEGPAAQTTAEPSRSFSSAHRHLSRRNGLSRLCQSRTALSEDRWSSYCLSSLAAQNICTSKLHCPAAPEHTDPSEPRGSVSCCSLLRGLSSGWSSPLLPAPVCNPNKAIFTVDAKTTEILVANDKACGLLGYSSQDLIGQKLTQFFLRSDSDVVEALSEEHMEADGHAAVVFGTVVDIISRSGEKIPVSVWMKRMRQERRLCCVVVLEPVERVSTWVAFQSDGTVTSCDSLFAHLHGYVSGEDVAGQHITDLIPSVQLPPSGQHIPKNLKIQRSVGRARDGTTFPLSLKLKSQPSSEEATTGEAAPVSGYRASVWVFCTISGLITLLPDGTIHGINHSFALTLFGYGKTELLGKNITFLIPGFYSYMDLAYNSSLQLPDLASCLDVGNESGCGERTLDPWQGQDPAEGGQDPRINVVLAGGHVVPRDEIRKLMESQDIFTGTQTELIAGGQLLSCLSPQPAPGVDNVPEGSLPVHGEQALPKDQQITALGREEPVAIESPGQDLLGESRSEPVDVKPFASCEDSEAPVPAEDGGSDAGMCGLCQKAQLERMGVSGPSGSDLWAGAAVAKPQAKGQLAGGSLLMHCPCYGSEWGLWWRSQDLAPSPSGMAGLSFGTPTLDEPWLGVENDREELQTCLIKEQLSQLSLAGALDVPHAELVPTECQAVTAPVSSCDLGGRDLCGGCTGSSSACYALATDLPGGLEAVEAQEVDVNSFSWNLKELFFSDQTDQTSSNCSCATSELRETPSSLAVGSDPDVGSLQEQGSCVLDDRELLLLTGTCVDLGQGRRFRESCVGHDPTEPLEVCLVSSEHYAASDRESPGHVPSTLDAGPEDTCPSAEEPRLNVQVTSTPVIVMRGAAGLQREIQEGAYSGSCHHRDGLRLSIQFEVRRVELQGPTPLFCCWLVKDLLHSQRDSAARTRLFLASLPGSTHSTAAELTGPSLVEVLRARPWFEEPPKAVELEGLAACEGEYSQKYSTMSPLGSGAFGFVWTAVDKEKNKEVVVKFIKKEKVLEDCWIEDPKLGKVTLEIAILSRVEHANIIKVLDIFENQGFFQLVMEKHGSGLDLFAFIDRHPRLDEPLASYIFRQLVSAVGYLRLKDIIHRDIKDENIVIAEDFTIKLIDFGSAAYLERGKLFYTFCGTIEYCAPEVLMGNPYRGPELEMWSLGVTLYTLVFEENPFCELEETVEAAIHPPYLVSKELMSLVSGLLQPVPERRTTLEKLVTDPWVTQPVNLADYTWEEVCRVNKPESGVLSAASLEMGNRSLSDVAQAQELCGGPVPGEAPNGQGCLHPGDPRLLTS
Km: 2500 µM
